Here are results for one protein from publication PMC9769108, “Tuning dynamic DNA- and peptide-driven self-assembly in DNA–peptide conjugates†” (Chemical Science, 2022).

This series concerns the molecule itself. The experiment in a line: dynamic light scattering + atomic force microscopy; TAMg buffer, room temperature, aged 0 to 28 days; total peptide 10 μM; CD alongside.

Where no end group is shown, it is not given here.

B1: ILVAGK, β-turn-forming hexapeptide (parent peptide) (peptide)
peptide: ILVAGK
modifications: not fully specified (N-terminus, C-terminus)
notes: The form used for conjugation is N3-ILVAGK-NH2; also called pure ILVAGK
Regarding B1, the binding result is “binds”.
